T1: GRIP1_5, Q9Y3R0
T1 sequence (Q9Y3R0 568-668, limits assumed, looked up): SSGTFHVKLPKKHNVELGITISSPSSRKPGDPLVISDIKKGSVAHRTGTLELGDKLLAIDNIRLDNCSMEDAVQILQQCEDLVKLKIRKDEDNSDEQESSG

T2: SHANK1, Q9Y566
T2 sequence (Q9Y566 658-767, limits assumed, looked up): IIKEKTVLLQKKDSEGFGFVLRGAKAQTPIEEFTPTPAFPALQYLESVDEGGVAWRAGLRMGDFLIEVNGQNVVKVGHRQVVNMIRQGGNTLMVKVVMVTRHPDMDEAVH

T3: SNTB1, Q13884
T3 sequence (Q13884 107-205, limits assumed, looked up): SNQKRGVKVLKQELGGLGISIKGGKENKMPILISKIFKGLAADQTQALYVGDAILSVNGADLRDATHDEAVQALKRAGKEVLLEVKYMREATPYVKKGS

T4: APBA3_1, O96018
T4 sequence (O96018 389-490, limits assumed, looked up): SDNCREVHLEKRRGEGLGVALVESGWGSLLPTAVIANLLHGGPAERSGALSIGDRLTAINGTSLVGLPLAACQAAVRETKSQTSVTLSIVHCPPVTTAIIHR

T5: FRMPD1, Q5SYB0
T5 sequence (Q5SYB0 52-145, limits assumed, looked up): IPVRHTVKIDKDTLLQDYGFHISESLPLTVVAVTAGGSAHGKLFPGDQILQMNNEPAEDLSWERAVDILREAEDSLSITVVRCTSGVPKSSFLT

T6: DVL3, Q92997
T6 sequence (Q92997 244-331, limits assumed, looked up): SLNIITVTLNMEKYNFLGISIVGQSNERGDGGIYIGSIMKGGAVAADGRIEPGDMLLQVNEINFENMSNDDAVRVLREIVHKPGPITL

T7: PDZD7_3, Q9H5P4
T7 sequence (Q9H5P4 857-944, limits assumed, looked up): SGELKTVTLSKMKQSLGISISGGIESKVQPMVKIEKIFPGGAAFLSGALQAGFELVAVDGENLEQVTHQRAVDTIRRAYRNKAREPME

T8: APBA2_1, Q99767
T8 sequence (Q99767 563-664, limits assumed, looked up): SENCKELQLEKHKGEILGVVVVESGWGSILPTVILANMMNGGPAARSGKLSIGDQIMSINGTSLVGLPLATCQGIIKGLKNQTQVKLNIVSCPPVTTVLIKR

T9: TJP3_3, O95049
T9 sequence (O95049 375-456, limits assumed, looked up): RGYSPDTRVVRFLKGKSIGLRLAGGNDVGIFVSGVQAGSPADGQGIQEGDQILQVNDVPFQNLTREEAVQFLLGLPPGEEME

T10: ARHGAP21, Q5T5U3
T10 sequence (Q5T5U3 45-169, limits assumed, looked up): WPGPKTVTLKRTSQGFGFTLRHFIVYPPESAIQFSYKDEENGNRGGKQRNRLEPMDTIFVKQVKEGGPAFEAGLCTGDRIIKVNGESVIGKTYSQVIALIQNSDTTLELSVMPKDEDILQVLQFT

T11: DLG3_1, Q92796
T11 sequence (Q92796 125-227, limits assumed, looked up): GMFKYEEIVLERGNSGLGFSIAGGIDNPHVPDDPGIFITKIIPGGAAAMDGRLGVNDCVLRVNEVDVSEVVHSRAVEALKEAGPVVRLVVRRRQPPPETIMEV

T12: DLG3_2, Q92796
T12 sequence (Q92796 221-321, limits assumed, looked up): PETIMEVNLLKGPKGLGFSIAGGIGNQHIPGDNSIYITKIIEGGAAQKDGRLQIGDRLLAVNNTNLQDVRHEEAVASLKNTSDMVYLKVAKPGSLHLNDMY

T13: SYNJ2BP, P57105
T13 sequence (P57105 8-110, limits assumed, looked up): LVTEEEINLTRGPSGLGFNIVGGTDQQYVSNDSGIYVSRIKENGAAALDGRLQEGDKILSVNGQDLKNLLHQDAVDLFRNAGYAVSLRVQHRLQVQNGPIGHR


target: HTRA1, Q92743; assay: holdup assay; parameters: key: below the threshold = too weak to quantify, mostly under pKd 3.1 to 4; settings: plain residues with an end cap or a label only (N-terminal biotin on a linker: ado-ado)
Sequence (Q92743 360-477): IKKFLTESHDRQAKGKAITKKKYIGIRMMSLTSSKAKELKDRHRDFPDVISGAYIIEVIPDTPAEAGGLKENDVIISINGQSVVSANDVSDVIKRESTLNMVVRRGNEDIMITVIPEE

| pKd | Binder |
| --- | --- |
| 3.66 | QRYPGNQTTC [CCL24, O00175] |

target: T1, GRIP1_5, Q9Y3R0; assay: holdup assay; parameters: key: below the threshold = too weak to quantify, mostly under pKd 3.1 to 4; settings: plain residues with an end cap or a label only (N-terminal biotin on a linker: ado-ado)

| pKd | Binder |
| --- | --- |
| below the threshold | QRYPGNQTTC [CCL24, O00175] |

target: SCRIB_2, Q14160; assay: holdup assay; parameters: key: below the threshold = too weak to quantify, mostly under pKd 3.1 to 4; settings: plain residues with an end cap or a label only (N-terminal biotin on a linker: ado-ado)
Sequence (Q14160 857-960): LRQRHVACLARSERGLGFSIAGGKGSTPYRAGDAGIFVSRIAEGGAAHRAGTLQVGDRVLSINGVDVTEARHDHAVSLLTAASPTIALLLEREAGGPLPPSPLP

| pKd | Binder |
| --- | --- |
| below the threshold | QRYPGNQTTC [CCL24, O00175] |

target: T2, SHANK1, Q9Y566; assay: holdup assay; parameters: key: below the threshold = too weak to quantify, mostly under pKd 3.1 to 4; settings: plain residues with an end cap or a label only (N-terminal biotin on a linker: ado-ado)

| pKd | Binder |
| --- | --- |
| below the threshold | QRYPGNQTTC [CCL24, O00175] |

target: T3, SNTB1, Q13884; assay: holdup assay; parameters: key: below the threshold = too weak to quantify, mostly under pKd 3.1 to 4; settings: plain residues with an end cap or a label only (N-terminal biotin on a linker: ado-ado)

| pKd | Binder |
| --- | --- |
| 3.6 | QRYPGNQTTC [CCL24, O00175] |

target: MAST1, Q9Y2H9; assay: holdup assay; parameters: key: below the threshold = too weak to quantify, mostly under pKd 3.1 to 4; settings: plain residues with an end cap or a label only (N-terminal biotin on a linker: ado-ado)
Sequence (Q9Y2H9 962-1065): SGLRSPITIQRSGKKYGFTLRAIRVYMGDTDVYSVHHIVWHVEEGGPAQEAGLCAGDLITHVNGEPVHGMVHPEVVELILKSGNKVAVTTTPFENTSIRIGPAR

| pKd | Binder |
| --- | --- |
| 4.14 | QRYPGNQTTC [CCL24, O00175] |

target: T4, APBA3_1, O96018; assay: holdup assay; parameters: key: below the threshold = too weak to quantify, mostly under pKd 3.1 to 4; settings: plain residues with an end cap or a label only (N-terminal biotin on a linker: ado-ado)

| pKd | Binder |
| --- | --- |
| below the threshold | QRYPGNQTTC [CCL24, O00175] |

target: PDLIM1, O00151; assay: holdup assay; parameters: key: below the threshold = too weak to quantify, mostly under pKd 3.1 to 4; settings: plain residues with an end cap or a label only (N-terminal biotin on a linker: ado-ado)
Sequence (O00151 1-87): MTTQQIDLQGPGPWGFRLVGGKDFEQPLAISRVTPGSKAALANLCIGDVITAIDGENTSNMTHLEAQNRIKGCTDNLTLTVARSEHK

| pKd | Binder |
| --- | --- |
| below the threshold | QRYPGNQTTC [CCL24, O00175] |

target: T5, FRMPD1, Q5SYB0; assay: holdup assay; parameters: key: below the threshold = too weak to quantify, mostly under pKd 3.1 to 4; settings: plain residues with an end cap or a label only (N-terminal biotin on a linker: ado-ado)

| pKd | Binder |
| --- | --- |
| below the threshold | QRYPGNQTTC [CCL24, O00175] |

target: MAGI2_5, Q86UL8; assay: holdup assay; parameters: key: below the threshold = too weak to quantify, mostly under pKd 3.1 to 4; settings: plain residues with an end cap or a label only (N-terminal biotin on a linker: ado-ado)
Sequence (Q86UL8 915-1017): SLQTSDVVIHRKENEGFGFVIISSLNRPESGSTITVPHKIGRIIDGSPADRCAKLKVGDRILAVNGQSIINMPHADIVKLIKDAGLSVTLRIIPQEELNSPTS

| pKd | Binder |
| --- | --- |
| below the threshold | QRYPGNQTTC [CCL24, O00175] |

target: T6, DVL3, Q92997; assay: holdup assay; parameters: key: below the threshold = too weak to quantify, mostly under pKd 3.1 to 4; settings: plain residues with an end cap or a label only (N-terminal biotin on a linker: ado-ado)

| pKd | Binder |
| --- | --- |
| below the threshold | QRYPGNQTTC [CCL24, O00175] |

target: T7, PDZD7_3, Q9H5P4; assay: holdup assay; parameters: key: below the threshold = too weak to quantify, mostly under pKd 3.1 to 4; settings: plain residues with an end cap or a label only (N-terminal biotin on a linker: ado-ado)

| pKd | Binder |
| --- | --- |
| below the threshold | QRYPGNQTTC [CCL24, O00175] |

target: Inadl_6, Q8NI35; assay: holdup assay; parameters: key: below the threshold = too weak to quantify, mostly under pKd 3.1 to 4; settings: plain residues with an end cap or a label only (N-terminal biotin on a linker: ado-ado)
Sequence (Q8NI35 1058-1167): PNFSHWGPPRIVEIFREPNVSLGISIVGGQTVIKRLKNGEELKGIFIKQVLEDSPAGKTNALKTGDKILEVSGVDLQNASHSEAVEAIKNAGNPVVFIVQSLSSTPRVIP

| pKd | Binder |
| --- | --- |
| below the threshold | QRYPGNQTTC [CCL24, O00175] |

target: T8, APBA2_1, Q99767; assay: holdup assay; parameters: key: below the threshold = too weak to quantify, mostly under pKd 3.1 to 4; settings: plain residues with an end cap or a label only (N-terminal biotin on a linker: ado-ado)

| pKd | Binder |
| --- | --- |
| below the threshold | QRYPGNQTTC [CCL24, O00175] |

target: T9, TJP3_3, O95049; assay: holdup assay; parameters: key: below the threshold = too weak to quantify, mostly under pKd 3.1 to 4; settings: plain residues with an end cap or a label only (N-terminal biotin on a linker: ado-ado)

| pKd | Binder |
| --- | --- |
| below the threshold | QRYPGNQTTC [CCL24, O00175] |

target: GRIP2_4, Q9C0E4; assay: holdup assay; parameters: key: below the threshold = too weak to quantify, mostly under pKd 3.1 to 4; settings: plain residues with an end cap or a label only (N-terminal biotin on a linker: ado-ado)
Sequence (Q9C0E4 446-548): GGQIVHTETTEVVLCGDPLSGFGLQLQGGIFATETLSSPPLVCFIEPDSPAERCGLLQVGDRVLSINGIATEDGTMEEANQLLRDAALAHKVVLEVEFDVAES

| pKd | Binder |
| --- | --- |
| below the threshold | QRYPGNQTTC [CCL24, O00175] |

target: T10, ARHGAP21, Q5T5U3; assay: holdup assay; parameters: key: below the threshold = too weak to quantify, mostly under pKd 3.1 to 4; settings: plain residues with an end cap or a label only (N-terminal biotin on a linker: ado-ado)

| pKd | Binder |
| --- | --- |
| below the threshold | QRYPGNQTTC [CCL24, O00175] |

target: T11, DLG3_1, Q92796; assay: holdup assay; parameters: key: below the threshold = too weak to quantify, mostly under pKd 3.1 to 4; settings: plain residues with an end cap or a label only (N-terminal biotin on a linker: ado-ado)

| pKd | Binder |
| --- | --- |
| below the threshold | QRYPGNQTTC [CCL24, O00175] |

target: T12, DLG3_2, Q92796; assay: holdup assay; parameters: key: below the threshold = too weak to quantify, mostly under pKd 3.1 to 4; settings: plain residues with an end cap or a label only (N-terminal biotin on a linker: ado-ado)

| pKd | Binder |
| --- | --- |
| 4.26 | QRYPGNQTTC [CCL24, O00175] |

target: DLG1_2, Q12959; assay: holdup assay; parameters: key: below the threshold = too weak to quantify, mostly under pKd 3.1 to 4; settings: plain residues with an end cap or a label only (N-terminal biotin on a linker: ado-ado)
Sequence (Q12959 314-412): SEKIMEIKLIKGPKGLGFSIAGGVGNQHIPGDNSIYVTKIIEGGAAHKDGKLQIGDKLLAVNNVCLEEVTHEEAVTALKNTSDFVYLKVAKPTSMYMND

| pKd | Binder |
| --- | --- |
| below the threshold | QRYPGNQTTC [CCL24, O00175] |

target: MAGI2_6, Q86UL8; assay: holdup assay; parameters: key: below the threshold = too weak to quantify, mostly under pKd 3.1 to 4; settings: plain residues with an end cap or a label only (N-terminal biotin on a linker: ado-ado)
Sequence (Q86UL8 1141-1229): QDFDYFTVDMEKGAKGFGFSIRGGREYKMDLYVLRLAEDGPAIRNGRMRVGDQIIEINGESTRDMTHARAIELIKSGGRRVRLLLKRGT

| pKd | Binder |
| --- | --- |
| below the threshold | QRYPGNQTTC [CCL24, O00175] |

target: GRID2IP_2, A4D2P6; assay: holdup assay; parameters: key: below the threshold = too weak to quantify, mostly under pKd 3.1 to 4; settings: plain residues with an end cap or a label only (N-terminal biotin on a linker: ado-ado)
Sequence (A4D2P6 272-370): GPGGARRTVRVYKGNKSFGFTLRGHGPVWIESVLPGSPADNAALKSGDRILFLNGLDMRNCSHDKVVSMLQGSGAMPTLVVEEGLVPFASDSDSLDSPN

| pKd | Binder |
| --- | --- |
| 4.08 | QRYPGNQTTC [CCL24, O00175] |

target: Inadl_4, Q8NI35; assay: holdup assay; parameters: key: below the threshold = too weak to quantify, mostly under pKd 3.1 to 4; settings: plain residues with an end cap or a label only (N-terminal biotin on a linker: ado-ado)
Sequence (Q8NI35 547-651): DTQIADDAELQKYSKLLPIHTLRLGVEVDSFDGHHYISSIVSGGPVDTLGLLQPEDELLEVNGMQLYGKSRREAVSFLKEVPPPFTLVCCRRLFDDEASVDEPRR

| pKd | Binder |
| --- | --- |
| below the threshold | QRYPGNQTTC [CCL24, O00175] |

target: T13, SYNJ2BP, P57105; assay: holdup assay; parameters: key: below the threshold = too weak to quantify, mostly under pKd 3.1 to 4; settings: plain residues with an end cap or a label only (N-terminal biotin on a linker: ado-ado)

| pKd | Binder |
| --- | --- |
| below the threshold | QRYPGNQTTC [CCL24, O00175] |
